Experimental data published in patent US11584938B2, “Plant EPSPS mutant containing L195P and S247G mutations and encoding gene and use thereof” (GEVOTO LLC, priority 2017, dated 2023).
Residue numbers refer to the chain shown, from its start.

B1: G3: soybean EPSPS mutant, SEQ ID NO: 8, mutations L212(195)P and P114(101)S (protein)
chain: MAAAEKPSTAPEIVLEPIKDISGTITLPGSKSLSNRILLLAALSEGTTVVDNLLYSEDIHYMLGALRTLGLRVEDDQTTKQAIVEGCGGLFPTIKESKDEINLFLGNAGTAMRSLTAAVVAAGGNASYVLDGVPRMRERPIGDLVAGLKQLGADVDCFLGTNCPPVRVNGKGGLPGGKVKLSGSVSSQYLTALLMAAPLALGDVEIEIVDKPISVPYVEMTLKLMERFGVSVEHSGDWDKFLVHGGQKYKSPGNAFVEGDASSASYFLAGAAVTGGTITVNGCGTSSLQGDVKFAEVLEKMGAKVTWSENSVTVTGPPQDSSGQKVLQGIDVNMNKMPDVAMTLAVVALFANGQTTIRDVASWRVKETERMIAICTELRKLGATVEEGPDYCVITPPEKLNVTAIDTYDDHRMAMAFSLAACGDVPVTIKDPGCTRKTFPDYFEVLERFTRH
B2: G5: soybean EPSPS mutant, SEQ ID NO: 12, mutations S265(247)G and P114(101)S (protein)
chain: B1 chain with P212L, S265G
B3: G4: soybean EPSPS mutant, SEQ ID NO: 10, mutation S265(247)G (protein)
chain: B1 chain with S114P, P212L, S265G

Tested on: transgenic rice plants
Test: glyphosate resistance of the EPSPS mutant in transgenic rice plants sprayed with Roundup 41% ammonium glyphosate
Format: in vivo, rice (Nipponbare)
Excerpt: A method for detecting the glyphosate resistance of G1 (SEQ ID NO: 4) provided in Example 1, G3 (SEQ ID NO: 8) provided in Example 2, G4 (SEQ ID NO: 10) provided in Example 3, the soybean EPSPS mutant G5 (SEQ ID NO: 12) provided in Example 4, T1 (SEQ ID NO: 16) provided in Example 5, T3 (SEQ ID NO: 20) provided in Example 6, T4 (SEQ ID NO: 22) provided in Example 7, T5 (SEQ ID NO: 24) provided in Example 8, the wheat EPSPS mutant T6 (SEQ ID NO: 26) provided in Example 9, R1 (SEQ ID NO: 30) provided in Example 10, R3 (SEQ ID NO: 34) provided in Example 11, R4 (SEQ ID NO: 36) provided in Example 12, R5 (SEQ ID NO: 38) provided in Example 13, and the rice EPSPS mutant R6 (SEQ ID NO: 40) provided in Example 14 in the transgenic rice is as follows:
The plasmids (containing the EPSPS mutation gene) of the monoclonal resistant bacteria of pADV5-EPSPS in Examples 1-7 were extracted by a conventional method, followed by double enzyme digestion by Pac1 and BstEII, the small fragments were collected, and then the small fragments were ligated by using T4 DNA ligase, to the pGVP1 vectors that had undergone the same double enzyme digestion, to obtain a pGVP1-EPSPS vector having a structure as shown in FIG. 23.
EHA105 (Agrobacterium tumefaciens) competent cells were transformed by the pGVP1-EPSPS vector, and single colonies were picked up to perform bacterial colony PCR detection to identify positive strains; then the positive strains were inoculated into 1 mL of YEP culture medium containing 50 μg·mL^−1 kanamycin and 50 μg·mL^−1 rifampin to propagate, and then preserved at −80° C., or used for subsequent experiment.
400 μl of bacterium containing the target gene vector preserved at −80° C. was added to a culture dish of solid culture media containing YEP+50 μg/mL rifampin+50 μg/mL kanamycin, and cultured in the dark at 28° C. for 24 hours, then this bacterium was added to an infection culture medium, and this bacterial solution was adjusted to OD=0.2 as an infection liquid.
Sterilization and pre-culturing: mature rice (Nipponbare) seeds were manually shelled, and full seeds without bacterial plaque were selected, and sterilized according to following steps: putting the seeds into a 50 ml sterile centrifuge tube, adding 70% alcohol for disinfection for 30 seconds, pouring out the alcohol, and cleaning the seeds once with sterile water; adding 10-20 ml of 2.6% sodium hypochlorite solution for soaking and sterilizing for 20 minutes, pouring out the sodium hypochlorite solution, and soaking and cleaning the seeds with sterile water for 6-7 times, 3 minutes each time.
Induction and subculturing: the seeds were put on sterile filter paper for drying, and mature embryos were put in an induction culture medium with 12 embryos in each dish; the culture dishes were sealed with a sealing film after the operation was finished, the mature embryos were cultured in the dark at 30° C. for 21-28 days, calluses were transferred into a fresh culture medium, and continuously cultured for about 7-14 days, and spherical calluses with a size of 1-2 mm were taken as infection receptors.
the calluses were inoculated into a centrifuge tube or a culture cup, the prepared Agrobacterium tumefaciens suspension liquid was added for infection for 10 minutes, wherein the calluses were shaken several times; the bacterial solution was poured out, the calluses were taken out, and placed on sterile filter paper to suck out the surface bacterial solution (about 30 minutes); and the calluses were put on sterile filter paper in a culture dish, and cultured in the dark at 25° C. for 2-3 days.
Recovery culturing: the calluses having undergone co-culturing were inoculated in a recovery culture medium, and cultured in the dark at 30° C. for 5-7 days. First round of screening: the calluses were transferred to screening culture media 1 (S1) and cultured in the dark at 30° C. for 14 days. […]

[1] = 1× dosage 1060 g/hectare glyphosate sprayed, recorded on 10th day
[2] = 2× dosage 2120 g/hectare sprayed to plants surviving 1×, recorded 10 days later
[3] = 5× dosage 5300 g/hectare sprayed to plants surviving 2×, recorded 10 days later
[4] = 20× dosage 21200 g/hectare sprayed to plants surviving 5×, recorded 10 days later

Row | Molecule | %++&+++ (percentage of plant having medium and high glyphosate resistance to the total number of plants observed) [1] [%] | number of plants denoted by + (low glyphosate resistance) [1] | number of plants denoted by ++ (medium glyphosate resistance) [1] | number of plants denoted by +++ (high glyphosate resistance) [1] | number of plants denoted by − (no glyphosate resistance) [1] | glyphosate resistance / survival of the rice transformed by the EPSPS, in words (1× glyphosate dosage) | %++&+++ (percentage of plant having medium and high glyphosate resistance to the total number of plants observed) [2] [%] | number of plants denoted by + (low glyphosate resistance) [2] | number of plants denoted by ++ (medium glyphosate resistance) [2] | number of plants denoted by +++ (high glyphosate resistance) [2] | number of plants denoted by − (no glyphosate resistance) [2] | glyphosate resistance / survival of the rice transformed by the EPSPS, in words (2× glyphosate dosage) | &++&+++ (percentage of plant having medium and high glyphosate resistance to the total number of plants observed) [3] [%] | number of plants denoted by + (low glyphosate resistance) [3] | number of plants denoted by ++ (medium glyphosate resistance) [3] | number of plants denoted by +++ (high glyphosate resistance) [3] | number of plants denoted by − (no glyphosate resistance) [3] | glyphosate resistance / survival of the rice transformed by the EPSPS, in words (5× glyphosate dosage) | &++&+++ (percentage of plant having medium and high glyphosate resistance to the total number of plants observed) [4] [%] | number of plants denoted by + (low glyphosate resistance) [4] | other results
1 | B1 | 57.9 | 25 | 37 | 7 | 7 | had certain resistance to glyphosate | 0.0 | 66 | 0 | 0 | 10 | some of the rice seedlings containing the soybean EPSPS mutants G3 and G5 still survived | 0.0 | 46 | 0 | 0 | 30 | some of the rice seedlings containing the soybean EPSPS mutants G3 and G5 still survived | 0.0 | 8 | number of plants denoted by ++ (medium glyphosate resistance) [4]: 0; number of plants denoted by +++ (high glyphosate resistance) [4]: 0; number of plants denoted by − (no glyphosate resistance) [4]: 68; glyphosate resistance / survival of the rice transformed by the EPSPS, in words (20× glyphosate dosage): some of the rice seedlings containing the soybean EPSPS mutants G3 and G5 still survived
2 | B2 | 69.1 | 14 | 18 | 49 | 16 | had certain resistance to glyphosate | 34.0 | 43 | 23 | 10 | 21 | some of the rice seedlings containing the soybean EPSPS mutants G3 and G5 still survived | 7.2 | 53 | 6 | 1 | 37 | some of the rice seedlings containing the soybean EPSPS mutants G3 and G5 still survived | 0.0 | 24 | number of plants denoted by ++ (medium glyphosate resistance) [4]: 0; number of plants denoted by +++ (high glyphosate resistance) [4]: 0; number of plants denoted by − (no glyphosate resistance) [4]: 73; glyphosate resistance / survival of the rice transformed by the EPSPS, in words (20× glyphosate dosage): some of the rice seedlings containing the soybean EPSPS mutants G3 and G5 still survived
3 | B3 | 26.5 | 23 | 9 | 4 | 13 | obviously superior to that of the rice seedlings transformed by G0 | 2.0 | 25 | 01 | 0 | 25 | some of the transgenic rice seedlings transformed by G4 still survived | 0.0 | 7 | 0 | 0 | 44 | some of the transgenic rice seedlings transformed by G4 still survived | 0.0 | 0 | number of plants denoted by ++ (medium glyphosate resistance) [4]: 0; number of plants denoted by +++ (high glyphosate resistance) [4]: 0; number of plants denoted by − (no glyphosate resistance) [4]: 51
